Measured values taken from the supplement of paper PMC9732359.
± gives the uncertainty stated by the source.

Test: protein stability index of a GFP-peptide fusion (yeast GPS) (PSI 1-4); higher = more stable; sorted into four equal gates, so the index is relative within each strain
How it was run: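 Plasmids in a pooled yeast library fused tiled 17-residue yeast protein peptides downstream of GFP and also expressed Cherry. Mid-log cultures grown without leucine were sorted into four equal gates by GFP/Cherry fluorescence ratio. Each gate's plasmids were PCR-amplified and Illumina-sequenced, and reads were matched to strains by barcodes. The protein stability index is derived by multiplying each gate's read frequency by its gate number and summing the results.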

Sequence | protein stability index (doa10∆) | protein stability index (pdr5∆) | protein stability index (san1∆) | protein stability index (ubr1∆)
KKYSSKNKYGEINSEDY [SRP68] | 3.22 ± 0.12 | 2.8 ± 0.18 | 3.34 ± 0.066 | 3.14 ± 0.053
NIPRRELKINLPLTEHK [SRB4] | 2.93 ± 0.094 | 2.66 ± 0.072 | 3.23 ± 0.058 | 3.03 ± 0.12
KIAHGTTTLAFRFQGGI [PRE2] | 3.03 ± 0.095 | 3.11 ± 0.073 | 2.84 ± 0.067 | 3.1 ± 0.069
TLLWNKNDKLIKIEDFV [SNF5] | 1.8 ± 0.081 | 1.74 ± 0.066 | 1.55 ± 0.095 | 1.83 ± 0.036
GVEEVEGEYELTEAVED [RPL5] | 3.36 ± 0.11 | 3.45 ± 0.13 | 3.24 ± 0.14 | 3.24 ± 0.2
KDTPFTIYDGEAVAKYI [PRE5] | 2.69 ± 0.073 | 2.97 ± 0.062 | 3.13 ± 0.089 | 3.12 ± 0.05
LNELETLIKKKQDEKKS [SMC2] | 3.24 ± 0.087 | 3.27 ± 0.092 | 3.19 ± 0.063 | 2.91 ± 0.055
SVDKKVDSGEERNEQER [SWI3] | 3.53 ± 0.092 | 3.35 ± 0.14 | 3.25 ± 0.11 | 3.54 ± 0.077
IDRNSTILYLNVFHGLC [IRR1] | 2.41 ± 0.14 | 1.52 ± 0.084 | 2.14 ± 0.25 | 2.78 ± 0.17
PIKNRKNDTHYLLPDDF [BRN1] | 2.98 ± 0.079 | 2.93 ± 0.094 | 2.85 ± 0.061 | 2.95 ± 0.058
IGHLITKEEIMHGLQAK [RPN5] | 2.91 ± 0.087 | 2.96 ± 0.091 | 2.94 ± 0.065 | 3.01 ± 0.067
TDGVIGSRTTTNHVLEV [RPO31] | 3.17 ± 0.094 | 3.62 ± 0.094 | 3.19 ± 0.13 | 3.54 ± 0.088
NVEKPSSKPAFNLISNA [YLR335W/NUP2] | 3.1 ± 0.056 | 3.15 ± 0.066 | 3.14 ± 0.048 | 3.16 ± 0.044
LGKTIQTISLLTYLYEM [SNF2] | 1.72 ± 0.093 | 2.5 ± 0.087 | 2.47 ± 0.081 | 2.38 ± 0.076
NMKVTILHGSKSQEQRE [PRP28] | 3.42 ± 0.093 | 3.31 ± 0.15 | 3.25 ± 0.046 | 3.35 ± 0.06
MEADPSLHPLFEQFEKF [RPN9] | 2.82 ± 0.073 | 2.84 ± 0.061 | 2.39 ± 0.1 | 2.55 ± 0.05
LGILKKKRFDEFMAGFN [SMC4] | 2.15 ± 0.11 | 2.15 ± 0.13 | 1.88 ± 0.19 | 1.87 ± 0.078
FNKEQLNKFKKAIFQFV [ECM29] | 1.58 ± 0.15 | 1.27 ± 0.096 |  | 1.15 ± 0.069
SLEENAMSTVTLGVVGK [SKI6] | 3.22 ± 0.16 | 3.21 ± 0.14 | 3.04 ± 0.099 | 2.72 ± 0.11
LQSNSKLASTLEKISSS [SMC4] | 2.79 ± 0.04 | 2.52 ± 0.035 | 2.54 ± 0.037 | 2.53 ± 0.034
GDLLNAEVQSLFQDGSA [RRP4] | 2.18 ± 0.096 | 2.74 ± 0.13 | 2.94 ± 0.068 | 2.37 ± 0.096
GKTDYYQRKRLVTQHKA [RPL5] |  |  |  | 3.69 ± 0.22
SHINTNVGDNNSTASSS [ARP7] | 2.68 ± 0.095 | 3.02 ± 0.067 | 2.9 ± 0.062 | 2.84 ± 0.066
VRYTTSVMPPNEVYSAY [DLS1] | 2.83 ± 0.062 | 3.12 ± 0.069 | 2.48 ± 0.059 | 2.9 ± 0.061
AAEFRYKYGYDMPCDVL [SCL1] | 2.64 ± 0.078 | 2.79 ± 0.057 | 2.69 ± 0.054 | 2.33 ± 0.059
THDGRTIRYPDPNIKVN [RPS4A] | 1.52 ± 0.13 |  |  | 
LAHSQHRCAIRSGALIK [SSN2] | 1.5 ± 0.058 | 1.22 ± 0.046 | 1.16 ± 0.13 | 1.16 ± 0.037
NEVYSAYVVNDTAPKPN [DLS1] | 3.47 ± 0.12 | 3.1 ± 0.12 | 2.95 ± 0.099 | 3.25 ± 0.066

Sequence | protein stability index (doa10∆) | protein stability index (pdr5∆) | protein stability index (san1∆) | protein stability index (ubr1∆)
PIDDTMTLLTDSLRKLY [MTW1] | 1.89 ± 0.067 | 2.52 ± 0.062 | 1.73 ± 0.093 | 2.22 ± 0.052
NEKEQLSFINPKTGKVE [SEC65] | 2.98 ± 0.11 | 2.89 ± 0.11 | 2.98 ± 0.064 | 2.99 ± 0.059
DVECIKAKSHFTNIISR [YJL039C/NUP192] | 3.04 ± 0.092 | 3.1 ± 0.098 | 2.73 ± 0.078 | 2.97 ± 0.056
MATPSFGNSSPQLTFTH [YML103C/NUP188] | 2.75 ± 0.12 | 2.1 ± 0.068 | 2.83 ± 0.067 | 2.73 ± 0.062
CRNILGVTSLIKNLGLP [RPP1] | 1.81 ± 0.054 | 1.58 ± 0.051 | 1.23 ± 0.092 | 1.75 ± 0.045
TYLLKNDLVKARDLLDD [RPN9] | 2.7 ± 0.11 | 2.78 ± 0.11 |  | 2.52 ± 0.18
STVASALDTNGTSATTE [SIR4] | 2.2 ± 0.075 | 2.15 ± 0.065 | 2.91 ± 0.064 | 1.88 ± 0.045
TELLDYATKLSKFTKIP [MED4] |  | 2.71 ± 0.23 | 2.98 ± 0.16 | 
ILSINAIDYEPEYEKAM [SMC1] | 3.29 ± 0.076 | 3.1 ± 0.068 | 3.05 ± 0.049 | 3.13 ± 0.043
ITDKTIKAFMDSTIGNS [IRR1] | 2.54 ± 0.15 | 2.62 ± 0.14 | 3.4 ± 0.15 | 2.41 ± 0.14
VSANTPKSLNSNININV [SWI1] | 3.14 ± 0.11 | 2.64 ± 0.12 | 2.84 ± 0.12 | 2.87 ± 0.093
SARGSYLRVSFKNTRET [RPL17A] | 3.1 ± 0.048 | 2.82 ± 0.056 | 2.77 ± 0.051 | 2.86 ± 0.06
YLFDEIDAALDKQYRTA [SMC3] | 2.88 ± 0.091 | 2.77 ± 0.097 | 2.61 ± 0.1 | 3.12 ± 0.064
INKEIFHHWLVEFINKM [SRB8] | 1.49 ± 0.17 | 1.76 ± 0.12 | 3.03 ± 0.053 | 1.6 ± 0.088
LHEKYLTEGGSILEEKI [SMC1] | 3.02 ± 0.077 | 3.24 ± 0.1 | 3.01 ± 0.061 | 3.19 ± 0.094
FKERQMMVSYPKIDEDD [AAR2] | 3.28 ± 0.061 | 3.2 ± 0.055 | 3.19 ± 0.045 | 3.35 ± 0.043
SVSLLNSDIANLRTQVT [SMC1] | 3.04 ± 0.09 | 3.08 ± 0.064 | 3.13 ± 0.096 | 2.56 ± 0.11
MPLKILLATKQHDSSAN [CSN12] | 2.48 ± 0.076 | 1.97 ± 0.044 | 2.09 ± 0.063 | 2.27 ± 0.044
EAHPTKVKNFGVWVRYD [RPL20A] | 3.02 ± 0.087 | 2.96 ± 0.056 | 3.01 ± 0.044 | 2.9 ± 0.047
GDMTNSDAQSNLGSNVR [REC8] | 2.92 ± 0.28 | 3.52 ± 0.15 | 2.87 ± 0.17 | 3.25 ± 0.096
APLKHGVGILYKGMASN [BRR2] | 1.93 ± 0.078 | 1.68 ± 0.076 | 1.38 ± 0.13 | 1.3 ± 0.11
SCTFWSDKESNAYGFIE [YJL039C/NUP192] | 2.9 ± 0.079 | 2.65 ± 0.083 | 2.83 ± 0.07 | 3.26 ± 0.09
PKNQQYRAFGSIWQVKD [MED7] | 2.45 ± 0.084 | 2.7 ± 0.082 | 2.54 ± 0.08 | 2.64 ± 0.063
DPEEVEQQVAEEATTEE [RPS0A] | 3.3 ± 0.086 | 3.33 ± 0.097 | 3.1 ± 0.077 | 3.56 ± 0.077
ELSEEKYIVKASSGPRY [RPT4] | 2.66 ± 0.21 | 2.72 ± 0.17 | 3.21 ± 0.098 | 2.41 ± 0.18
IIASASYDKTVKLWEED [YGL100W/SEH1] | 3.3 ± 0.18 | 3.67 ± 0.25 | 3.22 ± 0.093 | 3.41 ± 0.12
DTRFGGRMDMTRLYDYE [SSN2] | 3.14 ± 0.1 | 3.23 ± 0.081 | 3.47 ± 0.045 | 3.21 ± 0.061
